# Assay results published in US20090214547A1.
# Several values for one entry are separate records, joined by “and”; a condition that tells them apart may be missing. Equal values may be shown once.
# B1: 22-1C11.1 (antibody, V domains shown)
# VH: VKLQESGGGVVQPGRSLRLSCAASGFTFSNYGMHWVRQAPGKGLEWVAVIWYDGSNKYYADFVKGRFTISRDNSKNTLYLQMNSLRAEDTAVYYCARRGNYYGLGSFYYYGMDVWGQGTTVTVSS
# VL: DIQMTQSPATLSLSPGERATLSCRASQSVSSYLAWYQQKPGQAPRLLIYDASNRATGIPARFSGSGSGTDFTLTISSLEPEDFAVYYCQQCSNWHPTFGQGTKLEIKR
# Tests used:
# PsaA Peptide 9144 [1] = test: peptide ELISA, plate 2
# Peptide GNT-04 [2] = test: peptide ELISA, plate 2
# Peptide GNT-05 [3] = test: peptide ELISA, plate 2
# Peptide GNT-06 [4] = test: peptide ELISA, plate 2
# PLY Peptide 10146 [5] = test: peptide ELISA, plate 2
# Peptide GNT-14 [6] = test: peptide ELISA, plate 2
# Peptide GNT-13 [7] = test: peptide ELISA, plate 2
# Peptide GNT-061 [8] = test: peptide ELISA, plate 2
# Peptide GNT-08 [9] = test: peptide ELISA, plate 2
# Peptide GNT-01 [10] = test: peptide ELISA, plate 2
# Peptide GNT-10 [11] = test: peptide ELISA, plate 2
# Peptide GNT-09 [12] = test: peptide ELISA, plate 2
# Peptide GNT-062 [13] = test: peptide ELISA, plate 2
# Peptide GNT-07 [14] = test: peptide ELISA, plate 2
# PsaA Peptide 9144 [15] = test: peptide ELISA, plate 2 overview
# Peptide GNT-04 [16] = test: peptide ELISA, plate 2 overview
# Peptide GNT-05 [17] = test: peptide ELISA, plate 2 overview
# Peptide GNT-06 [18] = test: peptide ELISA, plate 2 overview
# Peptide GNT-02 [19] = test: peptide ELISA, plate 2 overview
# PLY Peptide 10146 [20] = test: peptide ELISA, plate 2 overview
# Peptide GNT-14 [21] = test: peptide ELISA, plate 2 overview
# Peptide GNT-13 [22] = test: peptide ELISA, plate 2 overview
# Peptide GNT-061 [23] = test: peptide ELISA, plate 2 overview
# Peptide GNT-08 [24] = test: peptide ELISA, plate 2 overview
# Peptide GNT-01 [25] = test: peptide ELISA, plate 2 overview
# Peptide GNT-10 [26] = test: peptide ELISA, plate 2 overview
# Peptide GNT-09 [27] = test: peptide ELISA, plate 2 overview
# Peptide GNT-062 [28] = test: peptide ELISA, plate 2 overview
# Peptide GNT-07 [29] = test: peptide ELISA, plate 2 overview
# PsaA Peptide 9144 [30] = test: peptide ELISA, plate 1 overview
# Peptide GNT-02 [31] = test: peptide ELISA, plate 1 overview
# PLY Peptide 10146 [32] = test: peptide ELISA, plate 1 overview
# Peptide GNT-14 [33] = test: peptide ELISA, plate 1 overview
# Peptide GNT-13 [34] = test: peptide ELISA, plate 1 overview
# Peptide GNT-08 [35] = test: peptide ELISA, plate 1 overview
# Peptide GNT-01 [36] = test: peptide ELISA, plate 1 overview
# Peptide GNT-07 [37] = test: peptide ELISA, plate 1 overview
# PsaA Peptide 9144 [38] = test: peptide ELISA, plate 1
# Peptide GNT-02 [39] = test: peptide ELISA, plate 1
# PLY Peptide 10146 [40] = test: peptide ELISA, plate 1
# Peptide GNT-14 [41] = test: peptide ELISA, plate 1
# Peptide GNT-13 [42] = test: peptide ELISA, plate 1
# Peptide GNT-08 [43] = test: peptide ELISA, plate 1
# Peptide GNT-01 [44] = test: peptide ELISA, plate 1
binder,measurement,setting,value
B1,Elisa reading,PsaA Peptide 9144 [1],0.539
same,Elisa reading,Peptide GNT-04 [2],0.748
same,Elisa reading,Peptide GNT-05 [3],0.816
same,Elisa reading,Peptide GNT-06 [4],0.56
same,Elisa reading,PLY Peptide 10146 [5],1.58
same,Elisa reading,Peptide GNT-14 [6],0.257
same,Elisa reading,Peptide GNT-13 [7],0.264
same,Elisa reading,Peptide GNT-061 [8],0.61
same,Elisa reading,Peptide GNT-08 [9],0.73
same,Elisa reading,Peptide GNT-01 [10],1.27
same,Elisa reading,Peptide GNT-10 [11],0.403
same,Elisa reading,Peptide GNT-09 [12],0.475
same,Elisa reading,Peptide GNT-062 [13],0.844
same,Elisa reading,Peptide GNT-07 [14],0.681
same,Elisa reading,PsaA Peptide 9144 [15],0.54
same,Elisa reading,Peptide GNT-04 [16],0.75
same,Elisa reading,Peptide GNT-05 [17],0.82
same,Elisa reading,Peptide GNT-06 [18],0.56
same,Elisa reading,Peptide GNT-02 [19],> 3
same,Elisa reading,PLY Peptide 10146 [20],1.58
same,Elisa reading,Peptide GNT-14 [21],0.26
same,Elisa reading,Peptide GNT-13 [22],0.26
same,Elisa reading,Peptide GNT-061 [23],0.61
same,Elisa reading,Peptide GNT-08 [24],0.73
same,Elisa reading,Peptide GNT-01 [25],1.27
same,Elisa reading,Peptide GNT-10 [26],0.4
same,Elisa reading,Peptide GNT-09 [27],0.48
same,Elisa reading,Peptide GNT-062 [28],0.84
same,Elisa reading,Peptide GNT-07 [29],0.68
same,Elisa reading,PsaA Peptide 9144 [30],0.16
same,Elisa reading,Peptide GNT-02 [31],2.05
same,Elisa reading,PLY Peptide 10146 [32],1.09
same,Elisa reading,Peptide GNT-14 [33],0.1
same,Elisa reading,Peptide GNT-13 [34],0.11
same,Elisa reading,Peptide GNT-08 [35],0.71
same,Elisa reading,Peptide GNT-01 [36],0.72
same,Elisa reading,Peptide GNT-07 [37],0.24
same,Elisa reading,PsaA Peptide 9144 [38],0.16 and 0.1 and 0.19
same,Elisa reading,Peptide GNT-02 [39],2.05 and 2.51 and 3
same,Elisa reading,PLY Peptide 10146 [40],1.09 and 1.71 and 2.24
same,Elisa reading,Peptide GNT-14 [41],0.1 and 0.22
same,Elisa reading,Peptide GNT-13 [42],0.11 and 0.12 and 0.25
same,Elisa reading,Peptide GNT-08 [43],0.71 and 0.91 and 1.52
same,Elisa reading,Peptide GNT-01 [44],0.72 and 1.16 and 1.7
